Target: HIV-1 Tat, recombinant wild type Tat protein (HIV-1, UniProt P04608)
Assay: cell-based or functional assay

B1: Tat-Stimulatory Factor protein Tat-SF1 (pp140) (other)
chain: MSGTNLDGNDEFDEQLRMQELYGDGKDGDTQTDAGGEPDSLGQQPTDTPYEWDLDKKAWFPKITEDFIATYQANYGFSNDGASSSTANVEDVHARTAEEPPQEKAPEPTDARKKGEKRKAESGWFHVEEDRNTNVYVSGLPPDITVDEFIQLMSKFGIIMRDPQTEEFKVKLYKDNQGNLKGDGLCCYLKRESVELALKLLDEDEIRGYKLHVEVAKFQLKGEYDASKKKKKCKDYKKKLSMQQKQLDWRPERRAGPSRMRHERVVIIKNMFHPMDFEDDPLVLNEIREDLRVECSKFGQIRKLLLFDRHPDGVASVSFRDPEEADYCIQTLDGRWFGGRQITAQAWDGTTDYQVEETSREREERLRGWEAFLNAPEANRGLSVQILSLLRKAGPSRARHFSEHPSTSKMNAQETATGMAFEEPIDEKKFEKTEDGGEFEEGASENNAKESSPEKEAEEGCPEKESEEGCPKRGFEGSCSQKESEEGNPVRGSEEDSPKKESKKKTLKNDCEENGLAKESEDDLNKESEEEVGPTKESEEDDSEKESDEDCSEKQSEDGSEREFEENGLEKDLDEEGSEKELHENVLDKELEENDSENSEFEDDGSEKVLDEEGSEREFDEDSDEKEEEEDTYEKVFDDESDEKEDEEYADEKGLEAADKKAEEGDADEKLFEESDDKEDEDADGKEVEDADEKLFEDDDSNEKLFDEEEDSSEKLFDDSDERGTLGGFGSVEEGPLSTGSSFILSSDDDDDDI
modifications: phosphorylated by its associated kinase in the kinase reactions (gamma-32P ATP); sites not stated
fold activation by Tat of an HIV-1 LTR-CAT reporter (pBennCAT) in HeLa cells co-transfected with pSV-Tat-SF1, relative to empty vector: 5.2 fold
